# Laboratory results published in patent EP1720907B1 (MorphoSys AG, dated 2015).
# Several values for one entry are separate records, joined by “and”; a condition that tells them apart may be missing. Equal values may be shown once.
# T1: human CD38 (human, UniProt P28907 1-300)
# T1 sequence: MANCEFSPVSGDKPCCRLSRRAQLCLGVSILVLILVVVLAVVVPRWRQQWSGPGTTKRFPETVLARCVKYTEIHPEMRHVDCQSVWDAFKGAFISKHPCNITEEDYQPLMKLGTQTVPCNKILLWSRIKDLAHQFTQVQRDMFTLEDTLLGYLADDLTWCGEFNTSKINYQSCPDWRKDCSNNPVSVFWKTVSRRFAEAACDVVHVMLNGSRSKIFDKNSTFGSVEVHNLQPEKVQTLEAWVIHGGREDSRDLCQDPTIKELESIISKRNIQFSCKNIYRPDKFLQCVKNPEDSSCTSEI
# Biological target: T1, human CD38
# Assay: cell-based or functional assay
"ADCC EC50 [nM], LP-1 [nM]","ADCC EC50 [nM], RPMI8226 [nM]","CDC EC50 [nM], CHO-transfectants",Molecule
5.23,4.1,,Chimeric OKT10 (antibody)
0.09,0.04,,"MOR03079 human IgG1 (antibody, V domains shown) VH: QVQLVESGGGLVQPGGSLRLSCAASGFTFSNYGMHWVRQAPGKGLEWVSNIRSDGSWTYYADSVKGRFTISRDNSKNTLYLQMNSLRAEDTAVYYCARRYWSKSHASVTDYWGQGTLVTVSS VL: DIQMTQSPSSLSASVGDRVTITCRASQDISAFLNWYQQKPGKAPKLLIYKVSNLQSGVPSRFSGSGSGTDFTLTISSLQPEDFATYYCQQAYSGSITFGQGTKVEIKR"
1,0.28,10.9 nM and 13.6 nM,"MOR03100 human IgG1 (antibody, V domains shown) VH: QVQLVESGGGLVQPGGSLRLSCAASGFTFSSNGMSWVRQAPGKGLEWVSNISYLSSSTYYADSVKGRFTISRDNSKNTLYLQMNSLRAEDTAVYYCARFYGYFNYADVWGQGTLVTVSS VL: DIELTQPPSVSVAPGQTARISCSGDNIGHYYASWYQQKPGQAPVLVIYRDNDRPSGIPERFSGSNSGNTATLTISGTQAEDEADYYCQSYDYLHDFVFGGGTKLTVLG"
0.6,0.08,0.8 nM and 0.94 nM,"MOR03077 human IgG1 (antibody, V domains shown) VH: QVQLVQSGAEVKKPGASVKVSCKASGYTFTSYSINWVRQAPGQGLEWMGYIDPNRGNTNYAQKFQGRVTMTRDTSISTAYMELSSLRSEDTAVYYCAREYIYFIHGMLDFWGQGTLVTVSS VL: DIVMTQSPLSLPVTPGEPASISCRSSQSLLFIDGNNYLNWYLQKPGQSPQLLIYLGSNRASGVPDRFSGSGSGTDFTLKISRVEAEDVGVYYCQQYSSKSATFGQGTKVEIKR"
0.17,0.05,3.2 nM and 2.93 nM,"MOR03080 human IgG1 (antibody, V domains shown) VH: QVQLVESGGGLVQPGGSLRLSCAASGFTFSSYGMHWVRQAPGKGLEWVSNIYSDGSNTFYADSVKGRFTISRDNSKNTLYLQMNSLRAEDTAVYYCARNMYRWPFHYFFDYWGQGTLVTVSS VL: DIELTQPPSVSVAPGQTARISCSGDNIGNKYVSWYQQKPGQAPVVVIYGDNNRPSGIPERFSGSNSGNTATLTISGTQAEDEADYYCSSYDSSYFVFGGGTKLTVLG"
